Laboratory results published in PMC10720262 (Cell Reports, 2023).

Columns and labels:
NANP6 peptide = target: T1, NANP6 peptide (Plasmodium falciparum NF54); experiment: SPR; Carterra LSA; mAb amine-coupled to a CMD200M chip, peptide titrated in 2-fold steps up to 8 ug/mL without regeneration; 25 C; HBSTE (10 mM HEPES pH 7.4, 150 mM NaCl, 3 mM EDTA, 0.01% Tween 20); 1:1 Langmuir model; mean of triplicates; KD includes avidity for antigens with several repeats; details: both partners purified
T1 construct: source: synthetic peptide (CPC Scientific)

[1] = target: recombinant full-length PfCSP (Plasmodium falciparum circumsporozoite protein, strain NF54) (Plasmodium falciparum NF54, UniProt P19597)
Sequence of recombinant full-length PfCSP (Plasmodium falciparum circumsporozoite protein, strain NF54) (P19597 20-375): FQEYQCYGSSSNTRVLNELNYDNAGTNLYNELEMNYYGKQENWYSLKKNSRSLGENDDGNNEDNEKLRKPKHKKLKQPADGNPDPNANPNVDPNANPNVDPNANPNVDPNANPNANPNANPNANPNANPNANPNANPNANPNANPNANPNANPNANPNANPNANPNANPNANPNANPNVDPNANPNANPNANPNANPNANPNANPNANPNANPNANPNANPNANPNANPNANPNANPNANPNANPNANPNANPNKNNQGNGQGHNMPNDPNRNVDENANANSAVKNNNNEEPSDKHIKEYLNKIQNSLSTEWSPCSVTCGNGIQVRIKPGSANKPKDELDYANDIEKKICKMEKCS

B1: Ky311 (antibody, V domains shown)
VH: QMHLVESGGGVVQPGRSLRLSCVASGFTFNNHGMHWVRQAPGKGLEWVAVIWHDGSNKFYADSVNGRFIVSRDNSKNTLYLHMNSLRAEDTAVYYCARDFFVSGSYNYFDPWGQGTLVTVSS
VL: EIVLTQSPVTLSLSPGERATLSCRASQSVSNYLAWYQQKPGQAPRLLIYDAANRATGTPARFSGSGSGTDFTLTISSLEPEDFAVYFCQQRSKWFTFGPGTKLDIK
notes: source: CHO-3E7, purified (MabSelect SuRe LX)
B1 was tested, and the Kd (NANP6 peptide) was at most 0.0233 nM.

B2: CL-515341 (antibody, V domains shown)
VH: QVYLVESGGGVVQPGKSLRLSCAASGFTFSNYGMHWVRQAPGKGLEWVAIIWHDGSNKFYSDSVRGRFTISRDNSQNTLYLQMNSLSAEDTALYFCAKDIGYSNTWDYFDYWGQGTLVTVSS
VL: EIVLTQSPATLSLSPGERATLSCRASQSVNSFLAWYQQKPGQAPRLLIYDASNRATDIPDRFSGSGSGTDFTLTIRSLEPEDFAVYFCQQRSKWFTFGGGTTVEMK
B2: binds [1].

B3: Ky315 (antibody, V domains shown)
VH: QVQLVESGGGVVQPGRSLRLSCAASGFTLSNYGVHWVRQAPGTGLEWVALIWYDGSNKFYADSVKGRFTISRDNSMDIVYLQMNNLRAEDTALYYCVRPGIAAAGSNYYAMDVWGQGTAVTVSS
VL: EIVMTQSPATLSMSPGERATLSCRASQSVGSDLAWFQQKPGQAPRLLIYGAFTRATGIPARFSGSGSGSEFTLTISSLQSEDFAVYYCQQYNRWWTFGQGTKVEMK
notes: as for B1
Work on B3 yielded a Kd (NANP6 peptide) of 0.0723 nM.

B4: CL-531325 (antibody, V domains shown)
VH: QVHLVESGGGVVQPGKSLRLSCAASGFTFSNFGMHWVRQAPGKGLEWVALIWYDGSHKFYADSVQGRFTISRDNSKNTLFLQMNSLRAEDTAIYYCAKVISYGSVNYYNNYKYTMDVWGQGTTVTVSS
VL: not shown
B4: binds [1].

B5: CL-531271 (antibody, V domains shown)
VH: QVQLVESGGGEVQPGRSLRLSCAASGFTFSNYGMHWVRQAPGKGLEWVALIWYDGNNKFYADSVNGRFTISRDNSNNTLYLQMNSLRAEDTGVYYCARSFYYVSGNFFDYWGQGTLVTVSS
VL: DIPMTQSPSSVSASVGDRVTITCRASQGISTWLAWYQQKPGKAPKFLIYAASSLQSGVPSRFSGSGSGTDFTLTIYSLQPEDFATYYCQQGNSFPWTFGQGTKVEIK
B5: binds [1].

B6: Ky15.8 (antibody, V domains shown)
VH: QVQLVESGGNVVQPGRSLRLSCTASGFTFSSYGMHWVRQAPDKGLEWVAIIWYDGGNKFYADSVKGRFTISRDNSKDTLYLQMNSLRAEDTAVYYCAKAWYKIDDKYSMDVWGQGTTVTVSS
VL: not shown
notes: as for B1
With B6 the Kd (NANP6 peptide) was at most 0.0312 nM.

B7: Ky224 (antibody, V domains shown)
VH: QVQLVESGGGVVQPGRSLRLSCAASGFTFSVYGMHWVRQAPGKGLEWVAVIWYDGSNKIYADSVKGRFTISRDNSKNTLYLQMDSLSAADTAVYYCAKIGSSSFDYWGQGTLVIVSS
VL: DIVMTQTPLSSPVTLGQPASISCRSSQSLVHSNGITYLSWLQQRPGQPPRLLLYEISNRFSGVPDRFSGSGTGTDFTLKISRVEAEDVGVYYCMQTTQFPITFGQGTRLEIK
notes: as for B1
For B7, the Kd (NANP6 peptide) was 1.34 nM.

B8: CL-531286 (antibody, V domains shown)
VH: QVQLVESGGGLVQPGRSLRLSCAASGFTFSSSGMHWVRQAPGKGLEWVAVIWYDGSNKFYADSVKGRFTISRDNSKNTLYLQMNSLRAEDTAVYYCARSGYDILTGYFNFFDPWGQGTLVTVSS
VL: EIVLTQSPGTLSLSPGERATLSCRASQSVSSSHLAWYQQKPGQAPRLLIYGASSRATGIPDRFSGSGSGTDFTLTISRLEPEDFAVYYCHQYVSSFTFGPGTKVDFK
B8: binds [1].

B9: Ky15.3 (antibody, V domains shown)
VH: QVQLVESGGGVVQPGRSLRLSCVASGFTFSNAGMHWVRQTPGKGLEWVAIIWYDGSIKYYGESVKGRFTISRDNSKNTLYLEMSSLRAEDTAVYFCVRAYSGSLYDKYGMDVWGQGTTVIVSS
VL: DIQMTQSPSTLSASVGDRVTISCRASQTISTWLAWFQQKPGKAPKLLIYAASSLQSGVPSRFSGSGSGTDFTLTISNLQPDDFATYYCQQFNSYWTFGQGTKVEIK
notes: as for B1
Work on B9 yielded a Kd (NANP6 peptide) of at most 0.0174 nM.

B10: Ky230 (antibody, V domains shown)
VH: QVQLVESGGGVVQPGRSLRLSCAASGFTFSDYGMHWVRQAPGKGLEWVAIIWHDGSNKYYVDSVKGRFTISRDNSKNTLYLQMNSLRAEDTAVYYCARAASSFGSGFDYWGQGTLVTVSS
VL: DVVMTQSPLSLPVTLGQPASIFCRSSQSLVYSDGNTYLNWFQRRPGQSPRRLIYKVSDRDSGVPDRFSGSGSGTDFTLQISRVEAEDVGVYYCMQGTHWPPTFGQGTKVEIK
notes: as for B1
B10 showed a Kd (NANP6 peptide) of 0.257 nM.

B11: CL-515284 (antibody, V domains shown)
VH: QVQLVGSGGGVVQSGRSLRLSCAASGFTFSNFGMHWVRQTPDKGLEWLAIIWYDGSHKFYVDSVKGRFTISRDNSMNTLFLQMNSLRAEDTGVYYCVRSWNYADSKYGMDVWGQGTTVTVSS
VL: DIQMTQSPSTLSASVGDRVTITCRASQSISSWLAWYQQKPGKAPNLLIYKASSLESGVPSRFSGSGSGTEFTLTISSLQPDDFATYYCQQYYNYWTFGQGTKVEIK
B11: binds [1].

B12: Ky15.7 (antibody, V domains shown)
VH: QVQVVESGGGAVQPGRSLRLSCAASGFTFSNRGMHWVRQTPGKGLEWVAIIWYDGGNKFYADSVKGRFTISRDNSKNTLYLQMNSLRDEDTAVYYCVRAGDWKADKYTMDVWGQGTTVTVSS
VL: DIQMTQSPSTLSASVGDRVTITCRASQSISSWLAWYQQKPGKAPKVLIYQASSLESGVPSRFSGSGSGTEFTLTISSLQPDDFATYYCQQYNSYWTFGQGTKVEIK
notes: as for B1
B12 showed a Kd (NANP6 peptide) of 0.113 nM.

B13: CL-531383 (antibody, V domains shown)
VH: QVQLVESGGGVVQPGRSLRLSCAASGFTFSSFGMHWVRQTPVKGLEWVALIWYDGSHKFYADSVRGRFIISRDNSKNTLFLQMNSLRAEDTAIYYCAKVINYGSGNYYNNYKYTMDVWGQGTTVTVSS
VL: DIQMTQSPSTLSASVGDRVTITCRASQSISSWLAWYQQKPGKAPKVLIYKASSLESGVPSRFSGSGSGTEFTLTISSLQPDDFATYYCQQYNTYWTFGQGTKVEIK
B13: binds [1].

B14: CL-531969 (antibody, V domains shown)
VH: QVQLVESGGGVVQPGRSLRLSCAASGFTFSSSGMHWVRQAPGMGLEWVAIIWYDGSNKFYADSVKGRFTISRDNSKNTLYLQMNSLRAEDTAVYYCARAYVSGNYGDNYGMDVWGQGTTVTVSS
VL: DIQMTQSPSTLSASVGDRVTITCRASQSISSWLAWFQQKPGKAPKLLIYKASSLESGVPSRFSGSGSGTEFTLTINSLQPDDFATYFCQQYNYYWTFGQGTKVEIK
B14: binds [1].

B15: Ky15.10 (antibody, V domains shown)
VH: QVQLVESGGGVVQPGRSLRLSCAASGFTFSNSGMHWVRQVPGKGLEWVAIIWYDGSNKYYADSVKGRFSVSRDNSENTLYLQMSNLRAEDTAVYYCVRAYFDSENLYDYYGMDVWGQGTTVTVSS
VL: DIQMTQSPSTLSASVGDRVTITCRASQSISRWLAWFQKKPGKAPKLLIYTASNLESGVPSRFSGSGSGTEFTLTISSLQPDDFATYYCQQYYNYWTFGQGTKVEVK
notes: as for B1
B15 was tested, and the Kd (NANP6 peptide) was 0.0153 nM.

B16: CL-532151 (antibody, V domains shown)
VH: QVQLVESGGGVVQPGGSLRLSCAASGFTFSGSGMHWVRHAPGKGLEWVAIIWYDGSNKFYADSVKGRFTISRDNSRNTLYLQMNSLRAEDTAVYYCARAYVSGNYGDKYGMDVWGQGTTVTVSS
VL: DIQMTQSPSTLSASVGDRVTITCRASQSISNWLAWFQQKPGKAPKLLIYKASSLESGVPSRFSGSGSGTEFTLTINSLQPDDFATYFCQQYNYYWTFGQGTKVEIK
B16: binds [1].

B17: CL-532061 (antibody, V domains shown)
VH: QVQLVESGGGVVQPGRSLRLSCVASRFTFSNYGMHWVRQTPGKGLEWVAIIWYDGSNKFYGDSVKGRFTISRDNSRNTLYLQMNNLRAEDTAVYYCARAYDDFVDHDKYGMDVWGQGTTVTVSS
VL: DIQMTQSPSTLSASVGDRVTISCRASQSISIWLAWYQQKSGKAPKLLIYKASRLESGVPSRFSGSGSGTEFTLTISSLQPDDFATYYCQQYNSYWTFGQGTKVEIK
B17: binds [1].

B18: CL-531912 (antibody, V domains shown)
VH: LVQLVESGGGVVQPGRSLRLSCAASGFTFSSSGMHWVRQAPGKGLEWVAIIWYDGSNKFYADSVKGRFTISRDNSKNTLYLQMNSLRAEDTAVYYCARAYVSGSHGDKYGMDVWGQGTTVTVSS
VL: DIQMTQSPSTLSASVGDRVTITCRASQSISSWLAWFQQKPGKAPKLLIYKASSLESGVPSRFSGSGSGTEFTLTINSLQPDDFATYFCQQYNNYWTFGQGTKVEIK
B18: binds [1].

B19: Ky15.2 (antibody, V domains shown)
VH: QVLLVESGGGVVQPGTSLRLSCVASGFSFSTYGMHWVRQSPGKGLEWVAIIWYDGGNKFYADSVQGRFTVSRDNSKNTLYLQMNSLRAEDTAVYYCAKAYRTSLDKKYGMDVWGQGTTVTVSS
VL: DIQMTQSPSTLSASVGDRVTITCRASQSIASWLAWYQQKPGKAPKLLIYKASSLESGVPSRFSGSGSGTEFTLTISSLHPDDFATYFCQQFTSYWTFGQGTKVEIK
notes: as for B1
B19 gave a Kd (NANP6 peptide) of 0.0713 nM.

B20: Ky15.1 (antibody, V domains shown)
VH: QVQLVESGGGVVQPGRSLRLSCAASGFTFSNFGMHWVRQTPDRGLEWVAIIWFDGSNTFYADSVKGRFTISRDNYKNTLYLQMNSLRAEDTAVYFCARSFYSDSAGSLFDYWGQGTLVTVSS
VL: DIQMTQSPSTLSASVGDRVTITCRASQSISSWVAWYQQKPGKAPKLLIYKASDLETGVPSRFSGSGSGTEFTLTISGLQPDDFVTYYCLQNMRYWTFGQGTKVEIK
notes: as for B1
B20 showed a Kd (NANP6 peptide) of 0.0384 nM.

B21: Ky15.11 (antibody, V domains shown)
VH: QVQLVESGGGVVQPGRSLRLSCEASGFTFSNFGMHWVRQTPVKGLEWVAIIWFDGSYKYYTDSVKGRFTISRDNSKNTLYLQMNSLRAEDTAVYYCARARKGQRSDYYGSETSYTFDNWGQGTLVTVSS
VL: DIQMTQSPSTLSASVGDRVTITCRASQSINGWLAWYQQKPGKAPKFLIYKASILESGIPSRFSGSGSGTEFTLTISSLQPDDFATYYCQQYSSYWTFGQGTKVEIK
notes: as for B1
For B21, the Kd (NANP6 peptide) was at most 0.0357 nM.

B22: CL-531237 (antibody, V domains shown)
VH: QVQLVESGGGVVQPGTSLRLSCVASGFTFSNFGIHWFRQAPGKGLEWVSLIWYDGKNKFYAESVTGRFTISRDNSKNTVYLQMSSLRAEDTAVYYCARSYYYDSGNYFDYWGQGTLVTVSS
VL: DIQMTQSPSSVSASVGDRITITCRASQGISSRLAWFQQKPGKAPNFLIYGTSSLQSGVPSRFSGSGSGTDFTLTISSLQPEDSATYYCQQANSYPWTFGQGTKVEIK
B22: binds [1].
